Measurements as given in paper PMC3810402.

T1: MDMX (synMDMX) 24-108 (Homo sapiens), O15151
T1 chain: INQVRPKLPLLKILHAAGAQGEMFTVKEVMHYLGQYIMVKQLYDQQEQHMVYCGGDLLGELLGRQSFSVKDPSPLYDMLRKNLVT


Tests used:
Details in all cases: modification not given
[1] = molecular target: T1, MDMX (synMDMX) 24-108 (Homo sapiens), …; experiment: SPR
[2] = molecular target: MDM2 (synMDM2) 25-109 (Homo sapiens), Q00987; experiment: SPR
[3] = molecular target: MDM2 (synMDM2) 25-109 (Homo sapiens), Q00987; experiment: SPR; remark: listed apart in the source
[4] = molecular target: MDM2 (synMDM2) 25-109 (Homo sapiens), Q00987; experiment: SPR direct

Chain of MDM2 (synMDM2) 25-109 (Homo sapiens), Q00987 (Q00987 25-109): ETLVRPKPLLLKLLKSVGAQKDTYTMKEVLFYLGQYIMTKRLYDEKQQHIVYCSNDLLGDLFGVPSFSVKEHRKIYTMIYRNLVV

Binder | Kd [1] [nM] | Kd [2] [nM] | Kd [3] [nM] | Kd [4] [nM]
CYSFDCLWKCLAMGFSSGKCINSKCKC [stoppin-1] | 994 | 790 | 320 | –
CYSFDCLWKCLAMGFRRGKCRRRKCKC [stoppin-2] | – | – | – | 493
